Values of other authors as cited in patent US20180147231A1, “METHOD FOR TREATMENT AND PROGNOSIS OF COLORECTAL CANCER” (Oxford University Innovation Limited, priority 2015, published 2018).
Residue numbers refer to the chain shown, from its start. Names may count otherwise.

T1: IL-22R complex (Homo sapiens, UniProt Q08334+Q8N6P7)
T1 sequence (Q8N6P7 16-228 limits assumed): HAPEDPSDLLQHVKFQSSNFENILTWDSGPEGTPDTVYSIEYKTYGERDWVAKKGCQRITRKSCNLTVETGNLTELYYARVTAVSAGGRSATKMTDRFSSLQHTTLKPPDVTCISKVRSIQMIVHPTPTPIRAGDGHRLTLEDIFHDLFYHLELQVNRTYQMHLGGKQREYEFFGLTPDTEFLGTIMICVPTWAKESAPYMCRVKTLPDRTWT
T1 sequence (Q08334 20-220 limits assumed): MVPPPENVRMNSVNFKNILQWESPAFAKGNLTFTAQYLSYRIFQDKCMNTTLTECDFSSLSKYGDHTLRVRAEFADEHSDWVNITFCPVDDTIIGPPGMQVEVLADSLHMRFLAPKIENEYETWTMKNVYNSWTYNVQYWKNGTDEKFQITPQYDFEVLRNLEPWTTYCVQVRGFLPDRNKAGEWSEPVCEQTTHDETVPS

T2: IL-22RA1 subunit of the receptor (Homo sapiens, UniProt Q8N6P7)
T2 sequence (Q8N6P7 16-574): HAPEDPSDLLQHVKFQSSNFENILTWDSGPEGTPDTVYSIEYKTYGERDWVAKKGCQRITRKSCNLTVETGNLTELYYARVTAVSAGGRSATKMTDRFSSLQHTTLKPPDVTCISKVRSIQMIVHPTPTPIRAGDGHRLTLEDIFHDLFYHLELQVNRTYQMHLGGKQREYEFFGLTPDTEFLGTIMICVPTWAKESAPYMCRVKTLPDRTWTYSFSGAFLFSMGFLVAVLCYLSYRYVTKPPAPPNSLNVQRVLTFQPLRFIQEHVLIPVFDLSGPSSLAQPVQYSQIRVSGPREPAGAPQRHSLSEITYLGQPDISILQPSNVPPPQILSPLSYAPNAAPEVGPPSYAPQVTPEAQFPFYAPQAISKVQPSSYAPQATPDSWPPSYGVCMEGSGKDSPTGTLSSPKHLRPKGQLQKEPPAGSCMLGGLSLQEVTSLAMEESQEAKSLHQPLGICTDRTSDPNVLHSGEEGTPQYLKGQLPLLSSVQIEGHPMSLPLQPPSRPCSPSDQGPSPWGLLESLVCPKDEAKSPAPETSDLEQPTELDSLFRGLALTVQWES

B1: N54G: reduced-function variant of IL-22 (SEQ ID NO: 5) in which N54 is mutated from asparagine to glutamine (protein, listed as Homo sapiens)
chain: MAALQKSVSSFLMGTLATSCLLLLALLVQGGAAAPISSHCRLDKSNFQQPYITGRTFMLAKEASLADNNTDVRLIGEKLFHGVSMSERCYLMKQVLNFTLEEVLFPQSDRFQPYMQEVVPFLARLSNRLSTCHIEGDDLHIQRNVQKLKDTVKKLGESGEIKAIGELDLLFMSLRNACI
B2: Y51A: variant of IL-22 (SEQ ID NO: 5) in which Y51 is mutated to A (protein, listed as Homo sapiens)
chain: B1 chain with Y51A, G54N
B3: E117A: variant of IL-22 (SEQ ID NO: 5) in which E117 is mutated to alanine (protein, listed as Homo sapiens)
chain: B1 chain with G54N, E117A
B4: T56A: variant of IL-22 (SEQ ID NO: 5) in which T56 is mutated to alanine (protein, listed as Homo sapiens)
chain: B1 chain with G54N, T56A
B5: F121A: variant of IL-22 (SEQ ID NO: 5) in which F121 is mutated to alanine (protein, listed as Homo sapiens)
chain: B1 chain with G54N, F121A
B6: N54A: variant of IL-22 (SEQ ID NO: 5) in which N54 is mutated to alanine (protein, listed as Homo sapiens)
chain: B1 chain with G54A
B7: R55A: variant of IL-22 (SEQ ID NO: 5) in which R55 is mutated to alanine (protein, listed as Homo sapiens)
chain: B1 chain with G54N, R55A
B8: I161A: variant of IL-22 (SEQ ID NO: 5) in which I161 is mutated to alanine (protein, listed as Homo sapiens)
chain: B1 chain with G54N, I161A
B9: K162A: variant of IL-22 (SEQ ID NO: 5) in which K162 is mutated to alanine (protein, listed as Homo sapiens)
chain: B1 chain with G54N, K162A
B10: V72A: variant of IL-22 (SEQ ID NO: 5) in which V72 is mutated to A (protein, listed as Homo sapiens)
chain: B1 chain with G54N, V72A
B11: D67A: variant of IL-22 (SEQ ID NO: 5) in which D67 is mutated to alanine (protein, listed as Homo sapiens)
chain: B1 chain with G54N, D67A

Molecular target: T1, IL-22R complex
Conditions: variant of IL-22 (SEQ ID NO: 5) compared with wild type; cited from earlier work

Binding to the IL-22R complex, reduce binding:
B1, B2, B3, B4, B5, B6, B7

Molecular target: T2, IL-22RA1 subunit of the receptor
Conditions: variant of IL-22 (SEQ ID NO: 5) compared with wild type; cited from earlier work

Binding to the IL-22RA1 subunit of the receptor, reduce binding:
B8, B9, B10, B11
